Laboratory results published in PMC3168947 (Molecular cell, 2011).
Positions count from the first letter of the chain named. Names and notes keep the numbering of the source.

Tests used:
[1] = tested on: ClpAP; details: H66A mutation; in words; ref Wang et al., 2008a; cited from earlier work
[2] = tested on: ClpAP; details: ref Dougan et al., 2002; cited from earlier work
[3] = tested on: ClpAP; assay: ClpAPS degradation of YLFVQELA-GFP; assay type: biochemical, E. coli; details: YLFVQELA-GFP degradation; Vmax = Etotal•kdeg/(1+K2); KM = K1•K2/(1+K2); Fig. 4B
[4] = tested on: ClpA; assay: FeBABE cleavage of ClpA by FeBABE-modified ^Q12CClpS; design: species or system E. coli; details: SDS-PAGE; in words

B1: H66A: H66A mutation of ClpS (protein, UniProt P0A8Q6 1-106, looked up, variant H66A)
ATP-dependent Clp protease …: MGKTNDWLDFDQLAEEKVRDALKPPSMYKVILVNDDYTPMEFVIDVLQKFFSYDVERATQLMLAVAYQGKAICGVFTAEVAETKVAMVNKYARENEHPLLCTLEKA
- KM and Vmax for ClpAP degradation of N-end-rule substrates [1]: increased KM and reduced Vmax

B2: ClpS: E. coli ClpS adaptor; folded core (residues 26-106) and N-terminal extension (residues 1-25) (protein, UniProt P0A8Q6 1-106, looked up)
ATP-dependent Clp protease …: B1 ATP-dependent Clp protease … with A66H
- degradation by ClpAP [2]: does not degrade
- K2 (unimolecular engagement step, global fit) [3]: 0.37

B3: ^Q12CClpS: Q12C ClpS variant, FeBABE attached to residue 12 (protein, UniProt P0A8Q6 1-106, looked up, variant Q12C)
ATP-dependent Clp protease …: B1 ATP-dependent Clp protease … with Q12C, A66H
modifications: FeBABE attached at Cys12
- FeBABE cleavage requirement [4]: cleavage of ClpA required FeBABE-modified ^Q12CClpS and ATPγS
